Experimental data from the nanobody polyreactivity screen of Harvey et al. (2022).

Test: yeast display, Sf9 membrane polyspecificity reagent, FACS + sequencing; frameworks hold sequencing errors
How it was run: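 Nanobodies from a synthetic yeast display library (Saccharomyces cerevisiae BJ5465), induced 36–48 hours with galactose, were stained 1 hour at 4 °C with 10% biotinylated, detergent-solubilized Sf9 membrane reagent, enriched on streptavidin microbeads, then FACS-sorted. Anti-HA (expression) and streptavidin (reagent binding) fluorescence set low and high (top ~1%) gates. Polyreactivity labels come from the gate of origin. Genes were colony-PCR amplified, MiSeq 2 × 250 sequenced and filtered by CDR length.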

Sequence	polyreactivity (PSR sort gate)
QVHLVESGGGLVQAGGSIRLSCAASGGTFSRNAMGWYRQAPGKERELVAAINSSGVSTSYADSVKGRFTISRDNAKNNVYLQMNSLKPEDTAVYYCAAETSSAEVDYWGQGTQVTVSS	low polyreactivity
QVHLEESCGGLVQAGGTLRLSCAASGSTFPRYVMGWYRQAPGKERELVAAITSGGSTYYADSVKGRFTISRDNAKNTVYLQMNRLKPEDTAVFYCAAGSYRVVWYDSWGQGTLVTVSS	high polyreactivity
QVQLVESGGGLVQAGGSLRLSCAASGITFYDYAMGWYRQAPGKERELVAVITRRGGSTYYADSVKGRFTISRDNAKNTVYIQMNSLKPEDTAVYYCAADWRVWSFVRGVDYWGQGTQVTVSS	high polyreactivity
QVQLVESGGGLVQAGGSLRLSCAASGRINAMGWYRQAPGKERELVAVITLRGGSTYYADSVKGRFTISRDNAKNTGYLQMNSLKPEDTAVYYCAAETLVSFWFDYWGQGTQVTVSS	low polyreactivity
QVHLVDSRGGLVQAGGSLRLSCAASGRISVFYTMGWYRQEPGKEREMVATITTSGGFTYYADSVKGRFTNSRDNAKNTVYLLMNSLKPEDTAVYYCAAVLGYRFYEYYFWGQGTQVTVSS	low polyreactivity
QVQLEESGGGLVQAGGSHRLSCAASGIIFRWYTMGWYRQAPGKERELVAAISTSTGSTYYADSVKGRFTISRDNAKNTVYLQMNSLKPEDTGVYYCAAEYAYWNYESYYWGQGTQVNVSS	high polyreactivity
QVQHVESGGGLVQAGGSLRLSCASSGSIFVGNAMGWYRQAPGKERELVAAISRRGGRPYYADSVKGRFTISRDKAKNTVYLQMNSLKPEDTAVYYCAAEYTYQNRIRFDYWGQGTQVTVSS	high polyreactivity
QDQLVESGGGLVQAGGTLRLSCAASGRIFPYNAMGWYRQAPGKERQLVAAISKSGVRTYYADSVKGRFTISRDNAKNTVYLQMNSLNPEETAVYYCAKLSPYGGDVGASEGPEYDYWGQGTQVTVSS	high polyreactivity
QVQLVESGGGLVQAGGSLSLSCAASGRIFAYYAMGWYRQAPGKERELVAAISGGGGSTYYADSVKGRFTISRDNAKNTVYLQMNSLKPEDTAVYYCAARYTVYSATGRYYYWGQGTQVTVSS	high polyreactivity
QVQLVESGGGLVHAGGSIRLSCAASGRIFPAYAMGWYRQAPGKERELVASIRRGGITYADSVKGRFTISRDNAKNTVYLQMNSLKPEDTAVYYCNADYRGWVYHMDYWGQGTQVTVSS	low polyreactivity
QDQLEESGGGLVQAGGSLRLSSAASGGTLYLYDMGWYRQAPGKERELVAAISYNGGSTYADSVKGRFTISRDNAKNTFYLQMNSLNPEDSAVYYCAADRPPRGLGGYWGQGTLVTVSS	low polyreactivity
QVQLVESGGGLVQAGGSLRLSCAASGLTSNGYTMGWYRQAPGKERELVAAITGRDGSTYADSVKGRFTISRDNAKNTVYLQMNSLKPEHTAVYYCAARLWRYRRYDYWGQGTQVTVSS	high polyreactivity
QVQLVESGGGLVQAGGRLRLSCAASGSIFVIYGMGWYRQAPGKERELVAAISDRGGSTYYADSVKGRFTISRDNAKNTVYLQMNSLKPEDTAVYYCAADRQYRYATRYDYWGQGTQVTVSS	low polyreactivity
QVQHVESGGGLVQAGGSLRLSCAASGSILRSYAMGWFRQAPGKERELVAVINGSGGRTYYADSVKGRFTISRDNEKNTVYLQMISLKPEDTAVYYCNADPGGRYPRRGYAHEGDYWGQGTQVTVSS	low polyreactivity
QVQLVESGGGLVQAGGSLRLSCAASGRTFIGYAMGWYRQAPGKERELVAAITSSGGSTYYSDSVKGRFTISRDNAKNTVYLQMNSLKPEDTAVYYCAAGRHSEDNYWGQGTQVTVSS	high polyreactivity
QVQLVESAGGLVQAGGSLRLSCAASGSIFGSNAMGWYRQAPGKERELVASITSSGGSTHYADSVKGRFTISRDNAKNTVYLQMNSLKPEDTAVSYCATRAYGYYRWLYDYWGQGTQVTGSS	low polyreactivity
QVQLVESGGGLVQAGGSLRLSCAASGYTFDKYVMGWYRQAPGKERELVAAISRSGGRTYYADSVKGRFTISRDNAKNTVYLQMNSLKPEDTAVYYCNALWFYNGLSYEYWGQGTQVTVSS	high polyreactivity
QVKLVESGGGLVQAGCRLRLSCAASGFICGYNAMGWYRQAPGKERELVAAIDWSGTSTYYADSVKWRFTISRDNAKNTVYLQMNSLKPEDSAVYYCAADTSTWDHTRGYDYWGQGTQVTVSS	high polyreactivity
QVQLQESGGGLVKAGGSLRLSCAASGNISNHNDMGWYRQAPGKESEFVAGITAGGITNYADSVKGRFTISRDNAKNTVYLQMNSLKPEDTAVYYCAAYPDYAKSYGYWGQGTQATVSS	low polyreactivity
QVQLVESGGGLVQAGGSLRLSCAASGFTFLRYAMGWYRQAPGKERELVAGITSRGASTYYADSVKGRFTISRDNAKTTVYLQINSLKPEDTAVYYCAADGSHTRYRYDYWGQGTQVTVSS	high polyreactivity
QVQLVESGGGLVQAGGSLRLSCAASGLTFYYNAMGWYRQAPGKERELVAAISRSGGSTYYADSVKGRFTISRDNAKNTVYLQMNSLKPEDTAVYYCAVGYVYTRKGRVQPVKYDYWGQGTQVTVSS	high polyreactivity
QVQLVESGGGLVQAGGSLRLSCAASGSTLASYAMGWYRQAPGKERELVAAISLSGGSTYYADSVKGRFTISRDNAKNTVYLQMNSLKPEDTAVYYCAAETVRYEWGESPAALFDYWGQGTQVTVSS	low polyreactivity

Sequence	polyreactivity (PSR sort gate)
QVQLVESGGGLVQAGGSLRLSCAASGITFSPYTMGWYRQAPGKERELVAAINSGGRTNYADSVKGRFTISRDNAKNTVYLQMNSLKPEDTAVYYCTKRGHPARLGYYYWGQGTQVTVSS	low polyreactivity
QVQLVESWGGLVQAGGSLRLSCAASGRILNYYDMGWYRQAPGKERELVAGISRGGSTTYADSVKGRFTISRDNAKNTVYLQMISLKPEDTAVYYCNADRSHYWLPYGVRFDYWGQGTQVNVSS	low polyreactivity
QVQLVESGGGLVQAGGSLRLSCAASGRIFYRNAMGWYRQAPGKERELVAAITGSGGSTYYADSVKGRFTISRDNAKNTVYLQMNSLKPEDTAVYYCNKPYFLYRPLGTGMEYWGQGTHVTVSS	high polyreactivity
QVQLVESGGGLVQAGCSLRLSCAASGFIFVFNAMGWYRQAPGKERELVAAINGGDITNYADSVKGRFTISRDNAKNTVYLQMNSMKPEDTAVYYCNADGYYFLISNANTLGYWGQGTQVNVSS	low polyreactivity
QVQLVESGGGLVQAGGSLRLSCAASGFSFPPYAMGWYRQAPGKERELVAAITTSGGSTYYADSVKGRFTISRDNAKNTVYLQMNSMKPEDTAVYYCAADWRYLGYTAMDYWGQGTQVTVSS	low polyreactivity
QVQLLESGGGLVQAGGSLRLSCAASGITFAKYAMGWYRQAPGKEREFVAAISTSGGSTYYADSVKGRFTISRDNAKNTVYLQMNSLKPEDTAVYYSNVETYIWYFLRYYNYWGQGTQVTVSS	high polyreactivity
QVQLVESGGGLVQAGGSLRLSCAASGFTFAYYAMGWYRQAPGKERELVAAISSGGGTYYADSVKGRFTISRDNAKNTVYLQMNSLKPEDTAVYYCNAANGRYIGSRYVVYTGFYYWGQGTQVTVSS	high polyreactivity
QVQLVESGGCLVQAGGSLRLSCSASGIIFFPYAMGWYRQAPGKERELVASINISDSSTYYADSVNGRFTISRDNAKNTVYLQMNTLKPEDSAVSYCAADNPGDSWYWHGNWGQGTQVTVSS	low polyreactivity
QVQLVESGGGLVQAAGSLRLSSAASGLIFPYYVMGWYRQAPGKERELVAAISVSGGNTYYADSVKGRFTITRDNAKYTVYLQLNSLKPVDTAVYYSAADHYRGSYDYWGQGSQVTVSS	high polyreactivity
QVQLVESGGGLVQAGGSLRLSCAASGRTFYLYTMGWYRQAPGKERELVAGISWSGGSTYADSVKGRFTISRDNAKNTVYLQMNSLKPEDTAVYYCAAEVYYGYDYWGQGTQVTVSS	low polyreactivity
QVQLVESGGGLVQAGGSLRLSCAASGRISAFNAMGWYRQAPGKERELVAAINVSGGNTYYADSVKGRFTISRDNAKNTVYLQMNSLKPEDTAVYYCAAERRRWGLDYYYWGQGTQVTVSS	high polyreactivity
QVQLVESGGGLVQAGGSLRLSCAASGFILATNAMGWSRQAPGKERELVAAISYAGGSTNYADSVKGRFTISRDNAKNTVYVPMNSLKPEDTAVYYCNAGGTVIWAWYCPVYSWGHGTQVTVSS	low polyreactivity
QVQLVESGGGLVQAGCSLRLSCASSGSIFGRYAMGWYRQAPGKERELVAAISRGGSTNYADSVKGRFTISRDNAKNTVYLQLNSLKPEDTAVYYCNRKPYYVSSTRYDYWGQGSQVTVSS	high polyreactivity
QVQLVESGGGLVQAGGSLRLSCAASGSTSGRNVMGWYIQAPGKERELVAAISSRGGSTYYADSVKGRFTISRDNAKNTVYLQMNSLKPEDTAVYYCAARYGAYSGYDYWGQGTQVTVSS	high polyreactivity
QVQLVESGGGLVQAGGSLRLSCAASGFIFARNTMGWYRQAPGKERELVAAITKSGGSTYYADSVKGRFTISRDNAKNTVYLQMNSPKPEDTSVYYCAARSWWLRGIYGFDSWGQGTQVTVSS	low polyreactivity
QVQLVESGGGLVQAGGSLRLSCAASGRIFPSNAMGWYRQAPGKERELVAAISFSGGSTYYADSVKGRFTISRDNAKNTVYLQMNSLKPEDTAVYYCAKSGVVDWGQGTQVTVSS	low polyreactivity
QVHRVESGGGLVQAGGCLRLSCAASGRTFARYVMGGYRQAPGKERELVAAINSGGTTYYADSVKGRFTISRDNAKNTVYLQMNSLKPEDTAVYYCNGRRGHYAYDYWGQGTQVTVSS	high polyreactivity
QVHLVESGGGLVQAGGSLRLSCAASGNTFYQYAMGWYRQAPGKERELVAAISSSGGSTYYADSVKGRFTISRDNAKNTVYLQMNSLKPEDTAVYYCATDKWYGYYYWGPGTQVTVSS	low polyreactivity
QVQLVESGGGLVQAGGSLRLSCAASGRIFFANTMGWYRQAPGKERELVAAISLSSGSTYYADSVKGRFTISRDNAKNTVYLQMNSLKPEDTAVYYCAARGYSHVASRLYYYWGQGTQVTVSS	high polyreactivity
QVQLVESGGGLVQAGRTLRLSCAASGFIFFDNAMGWYRQAPGKERELVAVISSSGTSTYYADAVKGRFTISRDNAKNTVYLQMNSLKPDDTAVYYCNATARTGVYLESDYWGQGTQVTVSS	low polyreactivity
QVQLQESGGDLEQAGGSLRLSCTASGTISDVRVMGWYRQAPGKERELVATISYVTITYYADSVKGRFTISRDSEKHRVSADDEPETGRYGGVLLRYYWGLGTQVTVSS	low polyreactivity
